Measurements reported in a protein production outcome set (Wang et al. 2014).

Assay: label from the status in PepcDB records
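Further: failed if final PepcDB status was selected cloned or expressed and not failed if soluble or beyond.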

**Q.** With “MSGPSTYQPQSPLMKWLEQRLPIAGLVHSSFIAYPTPRNLNYWWTFGAILSMMLAVQIVTGIVLAMHYTPHVDLAFDSVERIVRDVNYGWLLRNMHAAGASMFFIAVYVHMLRGLYYGSYKAPREVLWILGVIIYLLMMATGFMGYVLPWGQMSFWGATVITNLFSAFPIVGDSIVTLLWGGYSVGNPTLNRFFSLHYLLPFVIAGVVVLHVWALHVTGQNNPAGVEPKTEKDTVPFTPYATLKDVFGMSCFLVFYSWFIFYMPNYLGDAENYVPANPGVTPPHIVPEWYYLPFYAILRSIPNKLMGVIAMFGAIIVLLFLPWLDSCKVRSSRYRPMAKRFFWAFVVTCLVLGWLGSKPAEGIYTTLGQVFTFFYFAYFLIVLPVLGRMEKTLPLPNSIAEDVLNKGKVAKAVAGLVAVLFAGGLMVGGVQPAKANEGGENPPSLQWSFAGPFGTYDRAQLQRGFKIYKEVCSNCHSLKLLQYRNLAEPGGPGFTVEQAKEIAAAAQIKDGPNDQGEMFERPGRLADTFHSPFPNEQAARAANGGAAPPDMSLLAKARTYPRGFPQFIFDFFTQFQEQGPNYIAALLQGYEDTPPEGFSLPDGSFYNKWYPGHSIKMPPPIQAGMVSYDDGTPETLEQYAKDISTFLVWASEPHMEARKRLGLQVMIFLVILSSLLYFVKRKVWSNVH” as the sequence, how does the protein production read?
**A.** The protein production was “failed”.

**Q.** For “MSGRGKVKSEPMKVVFINTQYVETDARSFKTVVQELTGKNAIVAAGPFDSPSAFDGRCYDGGSKIGEDTRQLHGGGGGGGRMGTTTEFDRLFKEMPHMEELYKLWSEY”, which protein production is on record?
**A.** The protein production was “failed”.

**Q.** For “MSGRLRNALHKIRDRGLTPRDLFSYGCIAGHRLLSGAWGTLMLRAKAGCLGITVGKGCECFGTVILSRWPGSRIELGDGVSIISSSRRCTSATIHAPTRLRTFAPTARIILEDGVSLNGTAITARSRTIRIGKGTMVAPNCVITDSDFHAMWPPETRLDTPAFERDADVTIGQHVWLGMRCIVLKGVTIGDGAIVAAGSVVTRDVPPATLVAGVPARVVRHLP”, which protein production is on record?
**A.** The protein production was “failed”.

**Q.** Which protein production does the source give for “MSGSQPGRDKAIPAPRPTADIWENPDQLPADRGDLIKAKLTPAVITIFLRNNLKRIALLASALFVLGMIVLWLLPVRYAATALVMVDPREQRVTTDQEVLPGIGQDAAALQSLIEIAKSDGFLRPLVEKLKVAEDHEIAGSETDPARVLDRFRKHLEIARRGLTYVIEMTFVAKDPQRAAYYANAVAEAFVASQTQVRAVAADEAAGWLSSRLKTLNEKLRASEDAVAAFKTQYRIVDAGRESTTRQLRVTELTQQVSAARLRTEEAKNRYEQAQRDLKSDVDGSTGSKSDLVSVLRTQRTQLNDQIAQKRAVLGDRHPELVIAYNQLAELNRQIEAERKRNIVSAKSDYDAMRDQLKALEQQLKSLETEMLGDDQAAVKLKELQREANANRAIYEQFLERYNTTNQQRLLQATQTKVASFATPPTRPTRPPLLVLIAAIAVASILVSIAVVAMLASLSNQPEQADNSGPPEGATAPVPVEAAATSAAEPIEEKKPAADYSNLPIVLRIPDLSGARTLGGKLAMLGGERRLDHYVVGLLDAIGVKPSQRGMVVLVTSVDPGAGKSSVARALNAIAVDRGMLSVVIEVAGQARSVPAAPSNRAEPDGGALVRVLKTTIPSVVRLIASEPDVSAQNDVRSEFDLILIDAPALATQTEVAEIAAHTDLNLLVIDSAVTEAGAALEAQALLSRRGHAPAGVVVNKAGAQPAPAAVPAARLAS” here?
**A.** Its protein production is “failed”.

**Q.** With “MSGTSAALKPPADATTPVRHPDAPAPGELLGAHYGHCFGCGEEQSHGLHLAARAGQGVSITAEFTVQPAHQGAPGLAHGGVLATALDETLGSLNWLLRTIAVTGRLETDFVRPVPVGTVLYLEAEVTAVAGRKIYSTATGRIGGPEGPVAVRADALFVEVKVDHFTDNGRQEEIRAAMNDPDQLRRARAFEVNP” as the sequence, how does the protein production read?
**A.** The protein production was “failed”.

**Q.** Which protein production does the source give for “MSGYFEILAILTCAVFVVWLFRRLNLPAILAYLVAGMLVGQHGLNLVQDQVDYDHFAELGIVFLLFTLGLEFSLPRLMAMRHLVVSVGSLQVGISLLVFIIAGLFFGLSFSEAFVVGSILALSSTAIVIRQLSETGAMKRKSGQLSVAILLFQDVAVVPLLIIIPMLAMDSQSSMVWALMLAMVKGVVVVALLLLIGKWLLPKVFNIIAQVRTDELFVLTTLLVTLLAAAFTQWFGLSMALGAFLAGMMLSESEYKHQLEADIRPYRDILLGLFFITVGMKLDVSLLISSPFSLLGLMLCFMLVKIMVIKILAVKAGESSKDAWASGLMLAQMGEFGFVLIALANQSQILPLDVASMLLGAGVISMAITPFMINNARSWALFLSQEKSPESLDLSQLPENKVLENHVVICGFGRVGQTVSRFLKQDEIDFVAIDVDPLRTQKAREAGEKVLFGSSRQTEVLNAAHLSEAKLVVIAFGDDKQSLEVIQKVRSMNEKVPILVRTRNDDQLDALQAAGANEVVPESLEGSLMLVSQVLSLTGVPFSRIMRRVQRERKNHYNHLHGFFQGEHTDMSPQAIDRIEFAHAILINDNSFSCGKSIESLNLGKMRVNVVALRRGDIECESPGKDTVLQAQDTLIIRGKPRGVEKADHYVQEGK” here?
**A.** Its protein production is “failed”.

**Q.** For “MSHLLEKAAARGDLAALERLLDAGADLEWQHKGTGRTALLAATIAGHQPAVALLLARGANVQQPCKALGYSPLAWAASHGDTALAELLIAHGAALEQASPELQRTALMNAAQAGHEAMVALLLKAGANPSPVDFQQRNAWSLAEENGHAQVMQQLEQAGTGAPPAPAPAPSLPWPPLVPGTDSSADPVTQVRAYTLALYAWEQRGNALGHEALDAAFWAEPQQLLERFCTLRPRAYPRASYGYPTTHAEADELLGCQLLKPAQAEVLVRDPASRALCYEHRFVVKRVAGQWRIDSVKRRLAGTQKWANAIL”, which protein production is on record?
**A.** Its protein production is “failed”.

**Q.** For “MSHPDYRMNLRSLGTHRGVSAVAGPHDIGASPGDKKSKNRSTRGKKKSIFETYMSKEDVSEGLKRGTLIQGVLRINPKKFHEAFIPSPDGDRDIFIDGVVARNRALNGDLVVVKLLPEEHWKVVKPESNDKETEAAYESDIPEELCGHHLPQQSLKSYNDSPDVIVEAQFDGSDSEDGHGITQNVLVDGVKKLSVCVSEKGREDGDAPVTKDETTCISQDTRALSEKSLQRSAKVVYILEKKHSRAATGFLKLLADKNSELFRKYALFSPSDHRVPRIYVPLKDCPQDFVARPKDYANTLFICRIVDWKEDCNFALGQLAKSLGQAGEIEPETEGILTEYGVDFSDFSSEVLECLPQGLPWTIPPEEFSKRRDLRKDCIFTIDPSTARDLDDALSCKPLADGNFKVGVHIADVSYFVPEGSDLDKVAAERATSVYLVQKVVPMLPRLLCEELCSLNPMSDKLTFSVIWTLTPEGKILDEWFGRTIIRSCTKLSYEHAQSMIESPTEKIPAKELPPISPEHSSEEVHQAVLNLHGIAKQLRQQRFVDGALRLDQLKLAFTLDHETGLPQGCHIYEYRESNKPCCAGTPRPKQGCSVTWWNSATRWGCPWTSAPQEPSIKA”, which protein production is on record?
**A.** The protein production was “failed”.

**Q.** For “MSHPSYPPAPQNDAGAGIPQVPAAPYAYGRQFQGGAQPGYQPGPDSGPYGSPVGAPAKSFMTTWILALLLGSFGVDRFYLGKIGTGIAKLLTAGGFGIWSIVDLIITLTGNARDKQGRPLAGYPENKKKAWIITIVVWFAGLIVGIVSTVLSLTFVAAAVQGAGTDAPVLPSASQEAPAPSSGTASDDGSLTVTMSEGNTVKVSLLNSGYTTEIPGMSYMKPTRGGFLLLEVSWEATAGSSYASPSNFEAFDADGAKGEEIYVEEGLGGLPSGDVAAGEMQRGVIAFDIKNGPTTVVISDDFGDKAATFTLTPAN”, which protein production is on record?
**A.** Its protein production is “failed”.

**Q.** With “MSHSHSHGHSHEPTNYNRAFIISVALNTGFVVIEVVYGLAANSLALLADAGHNLSDVLGLLLAWGASFLGRRQPTPRRTYGLRRSSILAALLNAVLVLVASGAVAWEAIQRFAQPSPVSGSTIIGVAAVGIAINMGSALMFLSGRERDLNIRGAFIHLVADAAVSLGAVLAGIAIVATGWLWFDPVVSLMIVVVIIVSTWQLFQESLNLVTDAVPAGIEPLAVRTFLAELPGVSSIHDLHIWAMSTTETALTAHLIMPAGNLSDAFLVQVNQQLHDHFGIEHTTIHIETGDPSYPCPLAQENVV” as the sequence, how does the protein production read?
**A.** The protein production was “failed”.

**Q.** Which protein production does the source give for “MSHVELQPGFDFQQAGKEVLAIERECLAELDQYINQNFTLACEKMFWCKGKVVVMGMGKSGHIGRKMAATFASTGTPSFFVHPGEAAHGDLGMVTPQDVVIAISNSGESSEITALIPVLKRLHVPLICITGRPESSMARAADVHLCVKVAKEACPLGLAPTSSTTATLVMGDALAVALLKARGFTAEDFALSHPGGALGRKLLLRVNDIMHTGDEIPHVKKTASLRDALLEVTRKNLGMTVICDDNMMIEGIFTDGDLRRVFDMGVDVRQLSIADVMTPGGIRVRPGILAVEALNLMQSRHITSVMVADGDHLLGVLHMHDLLRAGVV” here?
**A.** The protein production was “failed”.

**Q.** With “MSHVLVNVAWPYANGPRHIGHVAGFGVPSDVYARYERMKGNDVLMVSGTDEHGTPILVEAEKEGLTAQELANRYNRVIAKDLCDLGLSYDLFTRTTTGNHEHVVQEMFKQCLENGYIYKGSQQVAISPSTGRTLPDRYIEGECPICHAEGARGDQCDACGNELDPDELINPVSKINGETPRFEQTEHYFLDLPALAEANKAWLETRKGWRTNVINFSLGLFKEVKPRAITRDIDWGIPVPVKGWIDNPNKKLYVWFDAVIGYLSASIEWARRQGDPEKWREWWNDPKCPAYYFMGKDNITFHSQIWPSEMLAYNGKGSKGGETGPMGPLNLPEQVVASEFMTMEGKKFSSSRGIVIYVKDILARYPVDAVRYYISVAGPESSDSDFTWAEFVRHNNEELASSWGNLVNRVANLINKNFGEIPPLDEDSMTNEDRGLLEEASAAFDVVGSSIETHHQKHALSEAMRVVGDINKYISATEPWKIKDDQARLGTVLHVAAQAVSDANHLLAPFLPHSAQKVWEALGGTGTFSPLPELKEVEDLDKPGFTYPIITGDYELGVNVHPWKSEAIEVGAVVPKPAPIFAKIPTEAVEEELARFDEALAARRAAEAERLAAEKAKLAAE” as the sequence, how does the protein production read?
**A.** Its protein production is “failed”.

**Q.** With “MSHYQCAVCSSIDANPNSLAVNYQCLADSSVVGEFHVLPRHQGYTDLLHGGIASSLLDGAMTHCLLFRDIQALTAQLDVRYHAPIELDEHVTITAHCEGERRGIYQLVAQLLVNNEVRVTAKGKFIRPKLEHHHHHH” as the sequence, how does the protein production read?
**A.** Its protein production is “not failed”.

**Q.** With “MSICPHIQQVFQNEKSKDGVLKTCNAARYILNHSVPKEKFLNTMKCGTCHEINSGATFMCLQCGFCGCWNHSHFLSHSKQIGHIFGINSNNGLLFCFKCEDYIGNIDLINDAILAKYWDDVCTKTMVPSMERRDGLSGLINMGSTCFMSSILQCLIHNPYFIRHSMSQIHSNNCKVRSPDKCFSCALDKIVHELYGALNTKQASSSSTSTNRQTGFIYLLTCAWKINQNLAGYSQQDAHEFWQFIINQIHQSYVLDLPNAKEVSRANNKQCECIVHTVFEGSLESSIVCPGCQNNSKTTIDPFLDLSLDIKDKKKLYECLDSFHKKEQLKDFNYHCGECNSTQDAIKQLGIHKLPSVLVLQLKRFEHLLNGSNRKLDDFIEFPTYLNMKNYCSTKEKDKHSENGKVPDIIYELIGIVSHKGTVNEGHYIAFCKISGGQWFKFNDSMVSSISQEEVLKEQAYLLFYTIRQVN” as the sequence, how does the protein production read?
**A.** The protein production was “failed”.

**Q.** For “MSIEIWITIIVFFLTMIVIFWRPRGLNEAWPAAIGAGIILITGLVSKPDVIDIVSKIGGASITILATIVMAVILESFGFFHWSAAKLANLAKGSGRRLYWYIQLLCFLMTLLFNNDGSILITTPILILLLKNLQLKPHQQIPYLLSGALIATASSAPIGESNIVNLIALNIVNMTLYMHTAMMFVPATLGLLFMSWLMYSVLKKKLPKKLPVSSYDIEEIFFTKNFHPLKGNNSVDTKQKRTRFMLKVLGFVFLMRCLLFVASFLSIPIEIVAVLGSLVLLIWRWYYLRTNPVDILKKTPWHILIFAFSMYVIIYGLHNAGLTAALVQWLEPIVNQHLLYASFAMGGLVSILSNVFNNHPALMIGTITLTEMGLDPVTLKTIYLANIIGSDIGSLLLPIGTLASLIWMYILKQNKIKVKWKDYLSVSLIVIPLTTVVTLFLLFYWVHLFFAL”, which protein production is on record?
**A.** The protein production was “failed”.

**Q.** With “MSIEMKTQLGTVDVSKDVVATIAGGAAVDCYGIVGMASQKQIKDGLSELLGRENFRRGVVIREEEDEIHIDMYIIVSYGTKISEVAYNVQTKVKYQLETMLGIDVDSVNIFVQGVRVTNPLEHHHHHH” as the sequence, how does the protein production read?
**A.** Its protein production is “failed”.

**Q.** Which protein production does the source give for “MSIFNKDALSSFFGLSGEEDDYYDNYEEYEERKAVNEPPRRAARPKPQRPVQQQESYSQPAYTQQSEPVVEKPSARYRSAEAHQERDTQQAAYTEKKVVSMRSSNQSATTNTRRAQESTANAKTHKITIIEPRVYSEAMSIAKHLFAEEAVLVNFTLVEEDQARRIVDFLTGTVYALDGDIQRVGNEIFLCTPANMEIDSATAQSLANKQFFDFLEHHHHHH” here?
**A.** The protein production was “failed”.
